The assay deals with ZbmA, the zorbamycin (ZBM)-binding protein of Streptomyces flavoviridis ATCC21892 (unmodified, as cocrystallised with Cu(II)-ZBM) (Streptomyces flavoviridis ATCC21892). The assay is described as follows: crystal structure.

For orientation: stoichiometry N means a count of units in the complex or per binding partner.

In turn, “ZbmA, the zorbamycin (ZBM)-binding protein of Streptomyces flavoviridis ATCC21892 (unmodified, as cocrystallised with Cu(II)-ZBM) (natural protein)” gave a stoichiometry N of 2.

For the origin of these results see article PMC4809751.
